According to PMC10686989, “Distinct activation mechanisms of β-arrestin-1 revealed by ^19F NMR spectroscopy” (Nature Communications, 2023):

Target: cysteine-less β-arrestin-1 D390C, 19F-labelled with wPSP-6F (human) (UniProt P49407)
Experiment: NMR titration; 19F NMR of wPSP-6F-labelled βarr1 (D390C site) titrated with phosphopeptide; 298 K, 20 mM Tris-HCl, 150 mM NaCl, pH 8.0; Kd estimated

Chain of cysteine-less β-arrestin-1 D390C, 19F-labelled with wPSP-6F (human) (P49407 whole entry C59V/C125S/C140L/C150V/C242V/C251V/C269S/D390C): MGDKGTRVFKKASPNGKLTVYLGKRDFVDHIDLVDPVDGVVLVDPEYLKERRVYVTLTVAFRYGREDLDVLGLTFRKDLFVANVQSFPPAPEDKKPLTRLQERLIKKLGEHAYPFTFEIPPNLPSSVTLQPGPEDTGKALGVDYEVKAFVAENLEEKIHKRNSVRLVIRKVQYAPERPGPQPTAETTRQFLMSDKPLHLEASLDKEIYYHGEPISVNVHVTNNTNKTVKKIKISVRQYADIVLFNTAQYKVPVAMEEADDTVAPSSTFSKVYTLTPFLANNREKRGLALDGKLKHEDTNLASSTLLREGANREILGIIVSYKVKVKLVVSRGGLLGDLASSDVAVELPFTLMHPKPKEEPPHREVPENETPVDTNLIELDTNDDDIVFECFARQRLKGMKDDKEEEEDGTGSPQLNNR

With “V2Rpp, phosphopeptide derived from the vasopressin V2 receptor (V2R)” as the substance, how does the Kd read?
The Kd was 1300 nM.
